In ChEMBL document CHEMBL1649237, “IND-6, a highly divergent IND-type metallo-beta-lactamase from Chryseobacterium indologenes strain 597 isolated in Burkina Faso” (2009):

Assays:
[1] = substrate: O=C(Cc1cccs1)N[C@@H]1C(=O)N2C(C(=O)O)=C(/C=C/c3ccc([N+](=O)[O-])cc3[N+](=O)[O-])CS[C@H]12; experiment: (§1) Ratio of Kcat to Km for Chryseobacterium indologenes 597 metallo-beta-lactamase IND-6 expressed in Escherichia coli DH5alpha by Michaelis-Menten equation
[2] = substrate: C[C@@H](O)[C@H]1C(=O)N2C(C(=O)O)=C(SCCNC=N)C[C@H]12; experiment: as §1
[3] = substrate: O=C(Cc1cccs1)N[C@@H]1C(=O)N2C(C(=O)[O-])=C(C[n+]3ccccc3)CS[C@H]12; experiment: as §1
[4] = substrate: CC(C)(O/N=C(\C(=O)N[C@@H]1C(=O)N2C(C(=O)[O-])=C(C[n+]3ccccc3)CS[C@H]12)c1csc(N)n1)C(=O)O; experiment: as §1
[5] = substrate: CC1(C)S[C@@H]2[C@H](NC(=O)C(C(=O)O)c3ccccc3)C(=O)N2[C@H]1C(=O)O; experiment: as §1
[6] = substrate: C[C@@H](O)[C@H]1C(=O)N2C(C(=O)O)=C(S[C@@H]3CN[C@H](C(=O)N(C)C)C3)[C@H](C)[C@H]12; experiment: as §1
[7] = substrate: CO/N=C(\C(=O)N[C@@H]1C(=O)N2C(C(=O)[O-])=C(C[N+]3(C)CCCC3)CS[C@H]12)c1csc(N)n1; experiment: as §1
[8] = substrate: CC1=C(C(=O)O)N2C(=O)[C@@H](NC(=O)[C@H](N)c3ccccc3)[C@H]2SC1; experiment: as §1
[9] = substrate: CC1(C)S[C@@H]2[C@H](NC(=O)Cc3ccccc3)C(=O)N2[C@H]1C(=O)O; experiment: as §1
[10] = substrate: CC(=O)OCC1=C(C(=O)O)N2C(=O)[C@@H](NC(=O)Cc3cccs3)[C@H]2SC1; experiment: as §1
[11] = substrate: CO/N=C(\C(=O)N[C@@H]1C(=O)N2C(C(=O)O)=C(COC(C)=O)CS[C@H]12)c1csc(N)n1; experiment: as §1
[12] = substrate: CO/N=C(\C(=O)N[C@@H]1C(=O)N2C(C(=O)O)=C(COC(N)=O)CS[C@H]12)c1ccco1; experiment: as §1
[13] = substrate: CC1(C)S[C@@H]2[C@H](NC(=O)[C@H](N)c3ccc(O)cc3)C(=O)N2[C@H]1C(=O)O; experiment: as §1
[14] = substrate: O=C(Cc1cccs1)N[C@@H]1C(=O)N2C(C(=O)O)=C(/C=C/c3ccc([N+](=O)[O-])cc3[N+](=O)[O-])CS[C@H]12; experiment: (§2) Activity at Chryseobacterium indologenes 597 metallo-beta-lactamase IND-6 expressed in Escherichia coli DH5alpha by Michaelis-Menten equation
[15] = substrate: C[C@@H](O)[C@H]1C(=O)N2C(C(=O)O)=C(SCCNC=N)C[C@H]12; experiment: as §2
[16] = substrate: O=C(Cc1cccs1)N[C@@H]1C(=O)N2C(C(=O)[O-])=C(C[n+]3ccccc3)CS[C@H]12; experiment: as §2
[17] = substrate: CC(C)(O/N=C(\C(=O)N[C@@H]1C(=O)N2C(C(=O)[O-])=C(C[n+]3ccccc3)CS[C@H]12)c1csc(N)n1)C(=O)O; experiment: as §2
[18] = substrate: CC1(C)S[C@@H]2[C@H](NC(=O)C(C(=O)O)c3ccccc3)C(=O)N2[C@H]1C(=O)O; experiment: as §2
[19] = substrate: C[C@@H](O)[C@H]1C(=O)N2C(C(=O)O)=C(S[C@@H]3CN[C@H](C(=O)N(C)C)C3)[C@H](C)[C@H]12; experiment: as §2
[20] = substrate: CO/N=C(\C(=O)N[C@@H]1C(=O)N2C(C(=O)[O-])=C(C[N+]3(C)CCCC3)CS[C@H]12)c1csc(N)n1; experiment: as §2
[21] = substrate: CC1=C(C(=O)O)N2C(=O)[C@@H](NC(=O)[C@H](N)c3ccccc3)[C@H]2SC1; experiment: as §2
[22] = substrate: CC1(C)S[C@@H]2[C@H](NC(=O)Cc3ccccc3)C(=O)N2[C@H]1C(=O)O; experiment: as §2
[23] = substrate: CC(=O)OCC1=C(C(=O)O)N2C(=O)[C@@H](NC(=O)Cc3cccs3)[C@H]2SC1; experiment: as §2
[24] = substrate: CO/N=C(\C(=O)N[C@@H]1C(=O)N2C(C(=O)O)=C(COC(C)=O)CS[C@H]12)c1csc(N)n1; experiment: as §2
[25] = substrate: CO/N=C(\C(=O)N[C@@H]1C(=O)N2C(C(=O)O)=C(COC(N)=O)CS[C@H]12)c1ccco1; experiment: as §2
[26] = substrate: CC1(C)S[C@@H]2[C@H](NC(=O)[C@H](N)c3ccc(O)cc3)C(=O)N2[C@H]1C(=O)O; experiment: as §2
[27] = substrate: C[C@@H](O)[C@H]1C(=O)N2C(C(=O)O)=C(SCCNC=N)C[C@H]12; experiment: (§3) Ratio of Kcat to Km for Chryseobacterium indologenes 597 metallo-beta-lactamase […] expressed in Escherichia coli DH5alpha by Michaelis-Menten equation
[28] = substrate: CC1(C)S[C@@H]2[C@H](NC(=O)C(C(=O)O)c3ccccc3)C(=O)N2[C@H]1C(=O)O; experiment: as §3
[29] = substrate: C[C@@H](O)[C@H]1C(=O)N2C(C(=O)O)=C(S[C@@H]3CN[C@H](C(=O)N(C)C)C3)[C@H](C)[C@H]12; experiment: as §3
[30] = substrate: CC1(C)S[C@@H]2[C@H](NC(=O)Cc3ccccc3)C(=O)N2[C@H]1C(=O)O; experiment: as §3
[31] = substrate: CO/N=C(\C(=O)N[C@@H]1C(=O)N2C(C(=O)O)=C(COC(C)=O)CS[C@H]12)c1csc(N)n1; experiment: as §3
[32] = substrate: C[C@@H](O)[C@H]1C(=O)N2C(C(=O)O)=C(SCCNC=N)C[C@H]12; experiment: (§4) Ratio of Kcat to Km for Chryseobacterium indologenes 597 metallo-beta-lactamase IND-2 expressed in Escherichia coli DH5alpha by Michaelis-Menten equation
[33] = substrate: CC(C)(O/N=C(\C(=O)N[C@@H]1C(=O)N2C(C(=O)[O-])=C(C[n+]3ccccc3)CS[C@H]12)c1csc(N)n1)C(=O)O; experiment: as §4
[34] = substrate: C[C@@H](O)[C@H]1C(=O)N2C(C(=O)O)=C(S[C@@H]3CN[C@H](C(=O)N(C)C)C3)[C@H](C)[C@H]12; experiment: as §4
[35] = substrate: CO/N=C(\C(=O)N[C@@H]1C(=O)N2C(C(=O)[O-])=C(C[N+]3(C)CCCC3)CS[C@H]12)c1csc(N)n1; experiment: as §4
[36] = substrate: CC1(C)S[C@@H]2[C@H](NC(=O)Cc3ccccc3)C(=O)N2[C@H]1C(=O)O; experiment: as §4
[37] = substrate: CC(=O)OCC1=C(C(=O)O)N2C(=O)[C@@H](NC(=O)Cc3cccs3)[C@H]2SC1; experiment: as §4
[38] = substrate: CO/N=C(\C(=O)N[C@@H]1C(=O)N2C(C(=O)O)=C(COC(C)=O)CS[C@H]12)c1csc(N)n1; experiment: as §4
[39] = substrate: O=C(Cc1cccs1)N[C@@H]1C(=O)N2C(C(=O)O)=C(/C=C/c3ccc([N+](=O)[O-])cc3[N+](=O)[O-])CS[C@H]12; experiment: (§5) Ratio of Kcat to Km for Chryseobacterium meningosepticum CCUG 4310 beta-lactamase BlaB1 expressed in Escherichia coli DH5alpha by Michaelis-Menten equation; settings: Elizabethkingia meningoseptica
[40] = substrate: C[C@@H](O)[C@H]1C(=O)N2C(C(=O)O)=C(SCCNC=N)C[C@H]12; experiment: as §5; settings: Elizabethkingia meningoseptica
[41] = substrate: O=C(Cc1cccs1)N[C@@H]1C(=O)N2C(C(=O)[O-])=C(C[n+]3ccccc3)CS[C@H]12; experiment: as §5; settings: Elizabethkingia meningoseptica
[42] = substrate: CC(C)(O/N=C(\C(=O)N[C@@H]1C(=O)N2C(C(=O)[O-])=C(C[n+]3ccccc3)CS[C@H]12)c1csc(N)n1)C(=O)O; experiment: as §5; settings: Elizabethkingia meningoseptica
[43] = substrate: CC1(C)S[C@@H]2[C@H](NC(=O)C(C(=O)O)c3ccccc3)C(=O)N2[C@H]1C(=O)O; experiment: as §5; settings: Elizabethkingia meningoseptica
[44] = substrate: C[C@@H](O)[C@H]1C(=O)N2C(C(=O)O)=C(S[C@@H]3CN[C@H](C(=O)N(C)C)C3)[C@H](C)[C@H]12; experiment: as §5; settings: Elizabethkingia meningoseptica
[45] = substrate: CO/N=C(\C(=O)N[C@@H]1C(=O)N2C(C(=O)[O-])=C(C[N+]3(C)CCCC3)CS[C@H]12)c1csc(N)n1; experiment: as §5; settings: Elizabethkingia meningoseptica
[46] = substrate: CC1(C)S[C@@H]2[C@H](NC(=O)Cc3ccccc3)C(=O)N2[C@H]1C(=O)O; experiment: as §5; settings: Elizabethkingia meningoseptica
[47] = substrate: CC(=O)OCC1=C(C(=O)O)N2C(=O)[C@@H](NC(=O)Cc3cccs3)[C@H]2SC1; experiment: as §5; settings: Elizabethkingia meningoseptica
[48] = substrate: CO/N=C(\C(=O)N[C@@H]1C(=O)N2C(C(=O)O)=C(COC(C)=O)CS[C@H]12)c1csc(N)n1; experiment: as §5; settings: Elizabethkingia meningoseptica
[49] = substrate: CO/N=C(\C(=O)N[C@@H]1C(=O)N2C(C(=O)O)=C(COC(N)=O)CS[C@H]12)c1ccco1; experiment: as §5; settings: Elizabethkingia meningoseptica

B1: Metallo-beta-lactamase IND-6 (Chryseobacterium indologenes), Q08I33 (protein)
chain: MKRRIQFFMVSMMLTPLFSAQVKDFVIEPPIKKNLYIYKTFGVFGGKEYSANSVYLVTKTGVVLFDVPWEKAQYQSLMDTIKKRHNLPVVAVFATHSHDDRAGDLSFFNNKGIKTYATPKTNQFLKRDGKATSTELIKPGKPYRFGGEEFVVDFLGEGHTADNVVVWFPKYKVLDGGCLVKSNSATDLGYIKEANLEQWPKTMHKLKTKYSEAVLIIPGHDEWKGGGHVEHTLELLDKK
[1]
  kcat/Km: 2.7 ×10⁶ /M/s
[2]
  kcat/Km: 3.8 ×10⁶ /M/s
[3]
  kcat/Km: 5.4 ×10⁶ /M/s
[4]
  kcat/Km: 2.7 ×10⁵ /M/s
[5]
  kcat/Km: 7 ×10⁶ /M/s
[6]
  kcat/Km: 1.7 ×10⁵ /M/s
[7]
  kcat/Km: 4 ×10³ /M/s
[8]
  kcat/Km: 6.3 ×10⁶ /M/s
[9]
  kcat/Km: 1.5 ×10⁷ /M/s
[10]
  kcat/Km: 6.9 ×10⁶ /M/s
[11]
  kcat/Km: 2.4 ×10⁵ /M/s
[12]
  kcat/Km: 3.3 ×10⁶ /M/s
[13]
  kcat/Km: 5.6 ×10⁶ /M/s
[14]
  Km: 43 µM
  kcat: 115 s⁻¹
[15]
  Km: 13 µM
  kcat: 50 s⁻¹
[16]
  Km: 90 µM
  kcat: 490 s⁻¹
[17]
  Km: 22 µM
  kcat: 6 s⁻¹
[18]
  Km: 30 µM
  kcat: 210 s⁻¹
[19]
  Km: 145 µM
  kcat: 25 s⁻¹
[20]
  Km: > 300 µM
  kcat: > 1.2 s⁻¹
[21]
  Km: 3 µM
  kcat: 19 s⁻¹
[22]
  Km: 20 µM
  kcat: 305 s⁻¹
[23]
  Km: 60 µM
  kcat: 415 s⁻¹
[24]
  Km: 33 µM
  kcat: 8 s⁻¹
[25]
  Km: 23 µM
  kcat: 75 s⁻¹
[26]
  Km: 85 µM
  kcat: 480 s⁻¹

B2: IND-like metallo-beta-lactamase (Chryseobacterium indologenes), Q6JE29 (protein)
chain: MKKRIQFFMVSMMLAPMFNAQVKDFVIEPPIKNNLHIYKTFGVFGGKEYSANSVYLVTKKGVVLFDVPWEKAQYQSLMDTIKKRHNLPVIAVFATHSHDDRAGDLSFFNNKGIKTYATSKTNEFLKKDGKATSTEIIKTGKPYRIGGEEFTVDFLGEGHTADNVVVWFPKYNVLDGGCLVKSNSATDLGYIKEANVEQWPITIDKLKAKYSKATLIIPGHDDWKGGGHVEHTLELLNKK
[27]
  kcat/Km: 2.4 ×10⁴ /M/s
[28]
  kcat/Km: 5.3 ×10⁴ /M/s
[29]
  kcat/Km: 1.5 ×10⁴ /M/s
[30]
  kcat/Km: 8.4 ×10⁵ /M/s
[31]
  kcat/Km: 3.1 ×10⁴ /M/s

B3: Metallo-beta-lactamase IND-2 (Chryseobacterium indologenes), Q9F923 (protein)
chain: MKKSIQLLMMSMFLSPLINAQVKDFVIEPPVKPNLYLYKSFGVFGGKEYSANAVYLTTKKGVVLFDVPWQKEQYQTLMDTIQKRHHLPVIAVFATHSHDDRAGDLSFYNQKGIKTYATAKTNELLKKDGKATSTEIIKTGKPYKIGGEEFMVDFLGEGHTVDNVVVWFPKYKVLDGGCLVKSRTATDLGYTGEANVKQWPETMRKLKTKYAQATLVIPGHDEWKGGGHVQHTLDLLDKN
[32]
  kcat/Km: 5.9 ×10⁵ /M/s
[33]
  kcat/Km: 4.5 ×10³ /M/s
[34]
  kcat/Km: 1.8 ×10⁵ /M/s
[35]
  kcat/Km: 4.5 ×10² /M/s
[36]
  kcat/Km: 4.6 ×10⁶ /M/s
[37]
  kcat/Km: 1.2 ×10⁶ /M/s
[38]
  kcat/Km: 9 ×10⁵ /M/s

B4: Metallo-beta-lactamase type 2 (Flavobacterium meningosepticum), O08498 (protein)
chain: MLKKIKISLILALGLTSLQAFGQENPDVKIEKLKDNLYVYTTYNTFNGTKYAANAVYLVTDKGVVVIDCPWGEDKFKSFTDEIYKKHGKKVIMNIATHSHDDRAGGLEYFGKIGAKTYSTKMTDSILAKENKPRAQYTFDNNKSFKVGKSEFQVYYPGKGHTADNVVVWFPKEKVLVGGCIIKSADSKDLGYIGEAYVNDWTQSVHNIQQKFSGAQYVVAGHDDWKDQRSIQHTLDLINEYQQKQKASN
[39]
  kcat/Km: 3.9 ×10⁶ /M/s
[40]
  kcat/Km: 2 ×10⁶ /M/s
[41]
  kcat/Km: 1.4 ×10⁵ /M/s
[42]
  kcat/Km: 6.6 ×10³ /M/s
[43]
  kcat/Km: 6.1 ×10⁶ /M/s
[44]
  kcat/Km: 7.6 ×10⁵ /M/s
[45]
  kcat/Km: 2 ×10² /M/s
[46]
  kcat/Km: 2.7 ×10⁷ /M/s
[47]
  kcat/Km: 1.6 ×10⁶ /M/s
[48]
  kcat/Km: 7.9 ×10⁵ /M/s
[49]
  kcat/Km: 1 ×10⁶ /M/s
